Measured values from PMC5958125, “IgG-single-chain TRAIL fusion proteins for tumour therapy” (Scientific Reports, 2018).
Each block holds one molecule with its values, some of them ahead of it.

Tests used:
Experiment in all cases: ELISA; TRAILR1-Fc or TRAILR2-Fc coated (200 ng/well in 0.1 M sodium carbonate buffer, pH 9.5), samples in 3% skim milk/PBS titrated 1:3 from 150 nM, 2 h room temperature, concentrations normalised to one scTRAIL unit, detected with anti-FLAG M2-HRP
TRAILR2-Fc [1] = biological target: TRAILR2-Fc (UniProt O14763)
TRAILR1-Fc = biological target: T1, TRAILR1-Fc (UniProt O00220 24-239); details: both partners purified
T1 construct: TRAIL receptor 1 (TRAILR1); Probably the extracellular domain fused to an Fc
T1 sequence (O00220 24-239): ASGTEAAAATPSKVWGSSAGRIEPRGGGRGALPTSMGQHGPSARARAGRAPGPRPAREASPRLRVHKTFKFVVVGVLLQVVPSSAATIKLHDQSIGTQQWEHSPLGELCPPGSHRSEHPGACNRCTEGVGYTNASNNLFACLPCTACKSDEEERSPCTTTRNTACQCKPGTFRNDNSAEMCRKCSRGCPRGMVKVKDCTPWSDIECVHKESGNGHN

TRAILR2-Fc [2] = biological target: T2, TRAILR2-Fc (UniProt O14763 56-210); details: both partners purified
T2 construct: TRAIL receptor 2 (TRAILR2); Probably the extracellular domain fused to an Fc

EC50 (TRAILR2-Fc [1]): 0.8 nM
Molecule: HC-scTRAIL (fusion of scTRAIL to hu225 IgG heavy chains)

EC50 (TRAILR2-Fc [1]): 3.4 nM
Molecule: LC/HC-scTRAIL (fusion of scTRAIL to both hu225 IgG chains)

Further lines, the molecule ahead of its results:

Molecule: LC-scTRAIL (fusion of scTRAIL to hu225 IgG light chains)
EC50 (TRAILR2-Fc [1]): 0.9 nM

B1: Fc-scTRAIL-FAVSGAA (Fc fusion)
chain: AAHITGTRGRSNTLSSPNSKNEKALGRKINSWESSRSGHSFLSNLHLRNGELVIHEKGFYYIYSQTYFRFQEEIKENTKNDKQMVQYIYKYTSYPDPILLMKSARNSCWSKDAEYGLYSIYQGGIFELKENDRIFVSVTNEHLIDMDHEASFFGAFAVSGAAHITGTRGRSNTLSSPNSKNEKALGRKINSWESSRSGHSFLSNLHLRNGELVIHEKGFYYIYSQTYFRFQEEIKENTKNDKQMVQYIYKYTSYPDPILLMKSARNSCWSKDAEYGLYSIYQGGIFELKENDRIFVSVTNEHLIDMDHEASFFGAFAVSGAAHITGTRGRSNTLSSPNSKNEKALGRKINSWESSRSGHSFLSNLHLRNGELVIHEKGFYYIYSQTYFRFQEEIKENTKNDKQMVQYIYKYTSYPDPILLMKSARNSCWSKDAEYGLYSIYQGGIFELKENDRIFVSVTNEHLIDMDHEASFFGAFAVS
EC50 (TRAILR1-Fc): 7.3 nM
EC50 (TRAILR2-Fc [2]): 1.1 nM
